The results in this text go back to patent publication US7078203 (UNIVERSITY OF NORTH CAROLINA AT CHAPEL HILL, dated 2006).

The target of test [1] is CDC53 fused to the Gal4 DNA binding domain (pGBT8-CDC53) (yeast; S. cerevisiae, UniProt P04386 1-147; Q12018 1-815). The experiment in a line: yeast two-hybrid. From the text: (§1) The yeast genome contains four cullin members, CDC53, CUL-B (ORF YGR003w), CUL-C(ORF YJL047c) and APC2. Each gene was fused in-frame with the Gal4 DNA binding domain and co-transformed with ScROC1 or ScAPC11 fused in-frame with the GAL4 activation domain. ScAPC2 was self-activating as a bait and was fused in-framed with the GAL4 activation domain and tested with ScROC1 fused in-frame with the DNA binding domain.

In test [2] the target is CUL-B (ORF YGR003w) fused to the Gal4 DNA binding domain (yeast; S. cerevisiae, UniProt P04386 1-147; P53202 1-744). The experiment in a line: yeast two-hybrid.
Excerpt: as §1

Test [3] has as its target T1, HA-epitope tagged human ROC1 (human, UniProt P62877 1-108).
T1 construct: Expressed by transfection in mammalian cells; tag written first because of the name HA-ROC1; also called HA-ROC1
Nature of the test: co-immunoprecipitation with anti-HA from [35S]-methionine labelled transfected cells.

Test [4] concerns the target human ROC1 (untagged: in vitro translated or endogenous in HeLa and Saos-2 cells) (human, UniProt P62877 1-108). Nature of the test: anti-ROC1 immunopurification from HeLa lysate, microsequencing of co-precipitated 70 to 120 kDa proteins.
In test [5] the target is T2, mouse APC2 fused to the Gal4 DNA-binding domain (yeast; mouse, UniProt P04386 1-147; Q8BZQ7 15-837, limits assumed).
T2 construct: also called GAL4BD-APC2
Nature of the test: yeast two-hybrid, -LWH with 5 mM 3-AT.

In a further test the target is myc-epitope tagged APC2 (mouse, UniProt Q8BZQ7 15-837). The experiment in a line: co-immunoprecipitation from transfected HeLa cells.
myc-epitope tagged APC2, sequence (Q8BZQ7 15-837): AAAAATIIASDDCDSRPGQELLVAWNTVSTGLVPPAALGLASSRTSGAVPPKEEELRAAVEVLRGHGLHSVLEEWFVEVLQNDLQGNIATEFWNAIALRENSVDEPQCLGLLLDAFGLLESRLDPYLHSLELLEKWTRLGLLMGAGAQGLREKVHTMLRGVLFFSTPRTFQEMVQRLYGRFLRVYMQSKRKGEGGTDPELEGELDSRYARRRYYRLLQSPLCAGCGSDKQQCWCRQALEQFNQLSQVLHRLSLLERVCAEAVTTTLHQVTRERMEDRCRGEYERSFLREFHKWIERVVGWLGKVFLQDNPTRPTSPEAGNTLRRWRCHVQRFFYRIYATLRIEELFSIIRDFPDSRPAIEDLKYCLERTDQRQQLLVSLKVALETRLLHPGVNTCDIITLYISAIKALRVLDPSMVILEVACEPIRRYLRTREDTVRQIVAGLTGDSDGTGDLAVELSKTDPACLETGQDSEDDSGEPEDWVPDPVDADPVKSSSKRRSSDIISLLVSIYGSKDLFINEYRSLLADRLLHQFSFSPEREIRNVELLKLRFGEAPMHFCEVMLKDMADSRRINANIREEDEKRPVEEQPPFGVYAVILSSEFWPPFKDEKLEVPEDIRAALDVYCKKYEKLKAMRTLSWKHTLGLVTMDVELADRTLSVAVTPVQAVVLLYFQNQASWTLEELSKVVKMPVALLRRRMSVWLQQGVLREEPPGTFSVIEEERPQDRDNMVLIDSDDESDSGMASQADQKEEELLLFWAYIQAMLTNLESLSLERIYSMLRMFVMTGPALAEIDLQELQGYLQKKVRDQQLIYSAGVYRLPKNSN

T1 sequence (P62877 whole entry): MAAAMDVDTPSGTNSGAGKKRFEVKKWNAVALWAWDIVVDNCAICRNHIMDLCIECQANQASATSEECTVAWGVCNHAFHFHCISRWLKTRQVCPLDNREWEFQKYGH
human ROC1 (untagged: in vitro translated or endogenous in HeLa and Saos-2 cells), sequence (P62877 whole entry, the tested form may be a part): as the sequence (P62877 whole entry) above

B1: ScAPC11 fused to the GAL4 activation domain (other, S. cerevisiae, UniProt Q12157 1-165, looked up, not shown: large carriers)
chain: MKVKINEVHSVFAWSWHIPSTSDEDAANNDPIGNDEDEDVCGICRASYNGTCPSCKFPGDQCPLVIGLCHHNFHDHCIYRWLDTPTSKGLCPMCRQTFQLQKGLAINDAHVQKFVEIVSRRREEMIEEGVAEEFVDFDEPIRQNTDNPIGRQQVDTILDEDFLLR
notes: also called yeast APC11
Consider B1, for which the binding result in test [1] and in test [2] was “no binding” throughout.

B2: myc-epitope tagged mouse cullin 4A (other, UniProt Q3TCH7 1-759, looked up, not shown: small tags and cut ends)
chain: MADEGPRKGSVSALMGRTNGLTKPAALAGGPAKPGGTGGSRKLVIKNFRDRPRLPDNYTQDTWRKLHEAVKAIQSSTSIRYNLEELYQAVENLCSHKVSPTLYKQLRQVCEDHVQAQILPFREDSLDSVLFLKKINTCWQDHCRQMIMIRSIFLFLDRTYVLQNSMLPSIWDMGLELFRNHIISDRMVQSKTIDGILLLIGRERSGEAVDRSLLRSLLSMLSDLQVYKDSFELKFLEETNCLYAAEGQRLMQDREVPEYLNHVSKRLEEEADRVITYLDHSTQKPLIACVEKQLLGEHLTAILQKGLEHLLDENRVPDLTQMYQLFSRVKGGQHALLQHWSEYIKTFGTTIVINPEKDKDMVQDLLDFKDKVDHVVEVCFQRNERFINLMKESFETFINKRPNKPAELIAKHVDSKLRAGNKEATDEELERILDKIMILFRFIHGKDVFEAFYKKDLAKRLLVGKSASVDAEKSMLSKLKHECGAAFTSKLEGMFKDMELSKDIMVHFKQHMQNQSAPGPIDLTVNILTMGYWPTYTPMEVHLPPEMVRLQEVFKTFYLGKHSGRKLQWQTTLGHAVLKADFKEGKKEFQVSLFQTLVLLMFNEGDGFSFEEIKMATGIEDSELRRTLQSLACGKARVLIKSPKGKEVEDGDKFIFNADFKHKLFRIKINQIQMKETVEEQVSTTERVFQDRQYQIDAAIVRIMKMRKTLGHNLLVSELYNQLKFPVKPGDLKKRIESLIDRDYMERDKDSPNQYHYVA
notes: also called myc-mCUL4A
In the case of B2, in test [3], the binding result is “binds”.

B3: human CUL2 (endogenous in HeLa cells) (other, UniProt Q13617 1-745, looked up)
chain: MSLKPRVVDFDETWNKLLTTIKAVVMLEYVERATWNDRFSDIYALCVAYPEPLGERLYTETKIFLENHVRHLHKRVLESEEQVLVMYHRYWEEYSKGADYMDCLYRYLNTQFIKKNKLTEADLQYGYGGVDMNEPLMEIGELALDMWRKLMVEPLQAILIRMLLREIKNDRGGEDPNQKVIHGVINSFVHVEQYKKKFPLKFYQEIFESPFLTETGEYYKQEASNLLQESNCSQYMEKVLGRLKDEEIRCRKYLHPSSYTKVIHECQQRMVADHLQFLHAECHNIIRQEKKNDMANMYVLLRAVSTGLPHMIQELQNHIHDEGLRATSNLTQENMPTLFVESVLEVHGKFVQLINTVLNGDQHFMSALDKALTSVVNYREPKSVCKAPELLAKYCDNLLKKSAKGMTENEVEDRLTSFITVFKYIDDKDVFQKFYARMLAKRLIHGLSMSMDSEEAMINKLKQACGYEFTSKLHRMYTDMSVSADLNNKFNNFIKNQDTVIDLGISFQIYVLQAGAWPLTQAPSSTFAIPQELEKSVQMFELFYSQHFSGRKLTWLHYLCTGEVKMNYLGKPYVAMVTTYQMAVLLAFNNSETVSYKELQDSTQMNEKELTKTIKSLLDVKMINHDSEKEDIDAESSFSLNMNFSSKRTKFKITTSMQKDTPQEMEQTRSAVDEDRKMYLQAAIVRIMKARKVLRHNALIQEVISQSRARFNPSISMIKKCIEVLIDKQYIERSQASADEYSYVA
notes: also called cullin 2
Regarding B3, in test [4], the binding result is “binds”.

B4: full length human ROC2 fused to the Gal4 DNA activation domain (other, not shown: large carriers)
chain: MFSLKKWNPVAMWSWDVECDTCAICRVQVMDACLRCQAENKQEDCVVVWGECNHSFHNCCMSLWVKQNNRCPLCQQDWVVQRIGK
notes: Yeast two-hybrid prey
Take B4: the binding result in test [5] is on record as “no binding”.

B5: HA tagged human ROC2 (other, not shown: small tags and cut ends)
chain: B4 chain
notes: Migrates as a doublet in transfected cells; also called HA-ROC2
For the molecule B5, the binding result in the test with myc-epitope tagged APC2 is given as “no binding”.
